Values quoted from earlier work as cited in article PMC3702509, “Label Free Fragment Screening Using Surface Plasmon Resonance as a Tool for Fragment Finding – Analyzing Parkin, a Difficult CNS Target” (PLoS ONE, 2013).
pKd: −log10 of the molar value.

Molecular target: UblD (Parkin ubiquitin-like domain) Ubl domain (Homo sapiens) (UniProt O60260)
Sequence (O60260 1-76): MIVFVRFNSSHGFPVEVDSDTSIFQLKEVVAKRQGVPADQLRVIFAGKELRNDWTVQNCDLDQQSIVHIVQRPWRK

Parkin (ΔUblD) ΔUblD, sequence (O60260 77-465, stated change not applied): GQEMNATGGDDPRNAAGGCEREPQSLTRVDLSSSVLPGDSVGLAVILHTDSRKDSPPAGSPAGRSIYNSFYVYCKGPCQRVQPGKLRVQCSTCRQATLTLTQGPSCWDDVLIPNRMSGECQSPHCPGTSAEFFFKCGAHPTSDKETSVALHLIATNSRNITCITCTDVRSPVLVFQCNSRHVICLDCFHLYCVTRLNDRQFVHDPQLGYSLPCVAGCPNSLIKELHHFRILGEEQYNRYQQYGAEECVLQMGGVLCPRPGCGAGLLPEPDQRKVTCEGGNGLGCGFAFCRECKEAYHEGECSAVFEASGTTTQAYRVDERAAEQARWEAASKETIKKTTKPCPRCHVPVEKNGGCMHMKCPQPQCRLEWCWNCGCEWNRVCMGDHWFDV

pKd: 5.59
Substance: Parkin (ΔUblD) ΔUblD (from UniProt O60260)
